Data taken from patent US20190352359A1.

Biological target: HLA-A*24
Test: UV peptide-exchange ELISA (anti-b2m); yield grade ++ = >20%

- peptide exchange yield: 20 to 50%
Binder: TQFFIPYTI (modifications not checked) [COL10-002]
